Reference: PMC10644352, “Bromodomain Factor 5 as a Target for Antileishmanial Drug Discovery” (ACS Infectious Diseases, 2023)

Tests used:
[1] = biological target: 5-FAM-labeled H2B(17-23)K19Ac K21Ac peptide of L. donovani histone H2B (Leishmania donovani); experiment: fluorescence polarisation; 800 nM 5-FAM peptide, protein 0-300 μM; 20 mM HEPES, 500 mM NaCl, 1 mg/mL BSA, pH 7.5; 30 min at room temperature; one-site-specific binding fit (two-site for BD5T); n = 3
[2] = biological target: 5-FAM-labeled H2B(9-23)K9Ac K15Ac K19Ac K21Ac peptide of L. donovani histone H2B (Leishmania donovani); experiment: as above
[3] = biological target: 5-FAM-labeled H2B(8-16)K9Ac K15Ac peptide of L. donovani histone H2B (Leishmania donovani); experiment: as above
[4] = biological target: unlabeled pan-acetylated peptide based on the H2B(9-23) sequence of L. donovani histone H2B (Leishmania donovani); experiment: thermal shift assay; 2.1 μM BD5T, 2x SYPRO orange, peptide at 400 μM, 20 mM HEPES, 500 mM NaCl, pH 7.5; 25 to 95 °C; n = 6

Kd [1] [µM] | Kd [2] [µM] | Kd [3] [µM] | ΔTm at 400 μM peptide [4] [°C] | Substance
77.5 | 117 | 170 |  | Leishmania donovani bromodomain factor 5 (LdBDF5) first bromodomain, recombinant BD5.1 (domain or fragment)
 |  |  | 0.6 | Leishmania donovani bromodomain factor 5 (LdBDF5) tandem bromodomain pair, recombinant BD5T (domain or fragment)
160 | 463 | 366 |  | Leishmania donovani bromodomain factor 5 (LdBDF5) second bromodomain, recombinant BD5.2 (domain or fragment)
